Measurements from US20240352438A1, “MEANS AND METHODS FOR DETOXIFYING OCHRATOXIN A” (DSM Austria GmbH, priority 2021, published 2024).
Residue numbers refer to the chain shown, from its start. Numbers in names are those of the source.

B1: I308V/V355L: variant of the enzyme of SEQ ID NO: 318 having the mutation combination I308V/V355L (protein)
chain: MTTRTRILTAFLSLLAANACAADAAPAAPHTVVLRAARMFDGASGKLVDHPQLTIVGNKIVRIAQGDKAEVPAGAEVVDLGDATLLPGFIDAHVHLSGQSSDNWYGDFFDNMMRFPAEQALYGAYYARITLEAGFTSVRDVGSTDWVALGLRNAIDAGKVPGPRMLVSNYAVGSTGGHADQDPIPPHKLPLAGPLQGVCNGPEECRAAVRYQIKYGANVIKFMPSGGVLSLSDPVDAPELSQDEMNAVIGESHAWGRKVAAHAHGDKAAKMAVAAGVDSIEHGSFIEDDTLRAMKAKNVYLVPTISAVAHVEEKIGTFPPVIAEKGRAAAAHLRQTFRHAVQIGVPIALGTDAGLGAHGSNAREFRYMVENGLTPAQALLAGTANAARLLGTFDRVGTLEAGKLADVVAVPGNPIADITVTERPLFVMKDGVVVRRDAVR
modifications: exemplary polypeptide
B2: F318Y/V355L: variant of the enzyme of SEQ ID NO: 318 having the mutation combination F318Y/V355L (protein)
chain: B1 chain with V308I, F318Y
modifications: exemplary polypeptide
B3: 161 (protein)
chain: B1 chain with V308A, G354A, L355V
modifications: exemplary polypeptide
B4: 170 (protein)
chain: B1 chain with A171P, V308A, G354A, L355V
modifications: exemplary polypeptide
B5: 171 (protein)
chain: B1 chain with A171P, G354A, L355V
modifications: exemplary polypeptide
B6: 172 (protein)
chain: B1 chain with A171P, V308I, F318Y, G354A, L355V
modifications: exemplary polypeptide
B7: 176 (protein)
chain: B1 chain with I184V, G354A, L355V
modifications: exemplary polypeptide
B8: 178 (protein)
chain: B1 chain with V308A, F318Y, G354A, L355V
modifications: exemplary polypeptide
B9: 185 (protein)
chain: B1 chain with V308I, A330V, L355V
modifications: exemplary polypeptide
B10: 191 (protein)
chain: B1 chain with V308I, G354T, L355V
modifications: exemplary polypeptide
B11: 199 (protein)
chain: B1 chain with W104L, V308I, L355V
modifications: exemplary polypeptide
B12: 204 (protein)
chain: B1 chain with V308I, I322Q, L355V
modifications: exemplary polypeptide
B13: 205 (protein)
chain: B1 chain with V308I, I322S, L355V
modifications: exemplary polypeptide
B14: 212 (protein)
chain: B1 chain with H50P, V308I, L355V
modifications: exemplary polypeptide
B15: 215 (protein)
chain: B1 chain with N103L, V308I, L355V
modifications: exemplary polypeptide
B16: 222 (protein)
chain: B1 chain with K188D, V308I, L355V
modifications: exemplary polypeptide
B17: 223 (protein)
chain: B1 chain with K188E, V308I, L355V
modifications: exemplary polypeptide
B18: 226 (protein)
chain: B1 chain with G226P, V308I, L355V
modifications: exemplary polypeptide
B19: 228 (protein)
chain: B1 chain with S230D, V308I, L355V
modifications: exemplary polypeptide
B20: 229 (protein)
chain: B1 chain with S230P, V308I, L355V
modifications: exemplary polypeptide
B21: 233 (protein)
chain: B1 chain with D233S, V308I, L355V
modifications: exemplary polypeptide
B22: 236 (protein)
chain: B1 chain with S284D, V308I, L355V
modifications: exemplary polypeptide
B23: 249 (protein)
chain: B1 chain with V308I, L355V, H358A
modifications: exemplary polypeptide
B24: 250 (protein)
chain: B1 chain with V308I, L355V, H358K
modifications: exemplary polypeptide
B25: 251 (protein)
chain: B1 chain with V308I, L355V, H358N
modifications: exemplary polypeptide
B26: 252 (protein)
chain: B1 chain with V308I, L355V, N361E
modifications: exemplary polypeptide
B27: 254 (protein)
chain: B1 chain with D110K, K188D, V308I, L355V
modifications: exemplary polypeptide
B28: 257 (protein)
chain: B1 chain with S284D, V308I, A329S, L355V
modifications: exemplary polypeptide

assay: OTA detoxification activity assay (specific activity, fluorescence reduction ex/em 390/450 nm); assay type: biochemical; details: pH 6
Description: To determine the specific activity of recombinant target polypeptides produced e.g. as described in Example 2 above in units per liter (U/L), ochratoxin A (OTA) detoxification activity assays were performed. One unit is defined as the amount of enzyme necessary for degradation of 1 μmol or OTA in 1 min when using a starting OTA concentration of […].
OTA detoxification activity assays were set up in a final volume of the reaction mixture of […], containing the recombinant enzyme preparation (preferably diluted to yield a volumetric activity of 1-10 mU/L), and 200 ng/mL OTA in 100 mM sodium phosphate buffer.
Specific activities were determined at pH 6.0 and pH 7.5. As soon as all components of the reaction mixture were mixed, OTA degradation was followed at 37° C. on a fluorescence spectrophotometer (BioTek Synergy H1 MFD Multimode microplate reader) by following the reduction in fluorescence at ex/em 390 nm/450 nm. For work performed at pH 6.0 and 7.5, a 100 mM sodium phosphate buffer was used.
For calculation of the specific activity, the initial linear part of the recorded fluorescence reduction curve was used. In addition to the fluorescence-based method described above, OTA degradation was also determined by using the HPLC-MS method as described by Dellafiora et al. 2020, Toxins 12, 258, essentially confirming the fluorescence-based results. Genes encoding either of the indicated SEQ ID NOs are expressed as described herein and the specific activities for the obtained polypeptide preparation are exemplarily shown in Table 8. Analogously, enzymatic activities using either ochratoxin B, C or TA as substrate or can be found.

| Molecule | % of the activity of the non-mutated enzyme of SEQ ID NO: 318 at pH 6 |
| --- | --- |
| B1 | 209% |
| B2 | 197% |

same assay, conditions: pH 6.0; SEQ ID NO: 1 = 100%

| Molecule | Specific OTA detoxification activities in % compared to the enzyme of SEQ ID NO: 1, pH 6.0 |
| --- | --- |
| B3 | 132% |
| B4 | 49% |
| B5 | 69% |
| B6 | 62% |
| B7 | 112% |
| B8 | 85% |
| B9 | 32% |
| B10 | 21% |
| B11 | 9% |
| B12 | 41% |
| B13 | 52% |
| B14 | 46% |
| B15 | 27% |
| B16 | 8% |
| B17 | 14% |
| B18 | 19% |
| B19 | 23% |
| B20 | 21% |
| B21 | 11% |
| B22 | 19% |
| B23 | 21% |
| B24 | 17% |
| B25 | 53% |
| B26 | 32% |
| B27 | 32% |
| B28 | 34% |

same assay, conditions: pH 7.5

| Molecule | % of the activity of the non-mutated enzyme of SEQ ID NO: 318 at pH 7.5 |
| --- | --- |
| B1 | 189% |
| B2 | 138% |

same assay, conditions: pH 7.5; SEQ ID NO: 1 = 100%

| Molecule | Specific OTA detoxification activities in % compared to the enzyme of SEQ ID NO: 1, pH 7.5 |
| --- | --- |
| B3 | 110% |
| B4 | 32% |
| B5 | 37% |
| B6 | 70% |
| B7 | 95% |
| B8 | 88% |
| B9 | 18% |
| B10 | 28% |
| B11 | 34% |
| B12 | 24% |
| B13 | 24% |
| B14 | 17% |
| B15 | 20% |
| B16 | 20% |
| B17 | 16% |
| B18 | 22% |
| B19 | 19% |
| B20 | 15% |
| B21 | 17% |
| B22 | 15% |
| B23 | 26% |
| B24 | 21% |
| B25 | 33% |
| B26 | 13% |
| B27 | 15% |
| B28 | 15% |
